Results from patent US20060263345A1, “Butyrylcholinesterase variant polypeptides with increased catalytic efficiency and methods of use” (priority 2003, published 2006).
Residue numbers refer to the chain shown, from its start. Names may count otherwise.

B1: A328W/Y332P (protein)
chain: EDDIIIATKNGKVRGMNLTVFGGTVTAFLGIPYAQPPLGRLRFKKPQSLTKWSDIWNATKYANSCCQNIDQSFPGFHGSEMWNPNTDLSEDCLYLNVWIPAPKPKNATVLIWIYGGGFQTGTSSLHVYDGKFLARVERVIVVSMNYRVGALGFLALPGNPEAPGNMGLFDQQLALQWVQKNIAAFGGNPKSVTLFGESAGAASVSLHLLSPGSHSLFTRAILQSGSFNAPWAVTSLYEARNRTLNLAKLTGCSRENETEIIKCLRNKDPQEILLNEAFVVPYGTPLSVNFGPTVDGDFLTDMPDILLELGQFKKTQILVGVNKDEGTWFLVPGAPGFSKDNNSIITRKEFQEGLKIFFPGVSEFGKESILFHYTDWVDDQRPENYREALGDVVGDYNFICPALEFTKKFSEWGNNAFFYYFEHRSSKLPWPEWMGVMHGYEIEFVFGLPLERRDNYTKAEEILSRSIVKRWANFAKYGNPNETQNNSTSWPVFKSTEQKYLTLNTESTRIMTKLRAQQCRFWTSFFPKVLEMTGNIDEAEWEWKAGFHRWNNYMMDWKNQFNDYTSKKESCVGL
modifications: Butyrylcholinesterase variant
B2: A328W/V331L (protein)
chain: B1 chain with V331L, P332Y
modifications: Butyrylcholinesterase variant
B3: A328W/S287G/F227A/A199S (protein)
chain: B1 chain with A199S, F227A, S287G, P332Y
modifications: Butyrylcholinesterase variant
B4: A328W/Y332S (protein)
chain: B1 chain with P332S
modifications: Butyrylcholinesterase variant
B5: A328W/S287G/A199S (protein)
chain: B1 chain with A199S, S287G, P332Y
modifications: Butyrylcholinesterase variant
B6: A328W/Y332M/S287G/F227A/A199S (protein)
chain: B1 chain with A199S, F227A, S287G, P332M
modifications: Butyrylcholinesterase variant
B7: A328W/S287G/F227A (protein)
chain: B1 chain with F227A, S287G, P332Y
modifications: Butyrylcholinesterase variant

experiment: microtiter isotope tracer [3H]-cocaine hydrolysis assay of immobilized butyrylcholinesterase variants; type: biochemical; conditions: compared to human butyrylcholinesterase
Excerpt: At the conclusion of the isotope tracer assay, an aliquot of the reaction mix is acidified in order to take advantage of the solubility difference between the product and the substrate at pH 3.0. […] Prospect, Ill.) while [3H]-cocaine is not.
The supernatants isolated from each of the butyrylcholinesterase variant library clones contains variable butyrylcholinesterase enzyme concentrations.
At least three approaches are used to either increase the assay sensitivity or the assay signal.
Km values for (−)-cocaine are determined at 37° C. Vmax and Km values are calculated using Sigma Plot (Jandel Scientific, San Rafael, Calif.). The number of active sites of butyrylcholinesterase is determined by the method of residual activity using echothiopate iodide or diisopropyl fluorophosphates as titrants, as described previously by Masson et al., Biochemistry 36: 2266-2277 (1997). […] Purified human butyrylcholinesterase is used as the standard for the ELISA quantitation assay. The catalytic rate constant, kcat, is calculated by dividing Vmax by the concentration of active sites.

| Molecule | cocaine hydrolysis activity compared to butyrylcholinesterase (in words) |
| --- | --- |
| B1 | enhanced cocaine hydrolase activity |
| B2 | enhanced cocaine hydrolase activity |
| B3 | enhanced cocaine hydrolase activity |
| B4 | enhanced cocaine hydrolase activity |
| B5 | enhanced cocaine hydrolase activity |
| B6 | enhanced cocaine hydrolase activity |
| B7 | enhanced cocaine hydrolase activity |

same assay, conditions: compared to human butyrylcholinesterase SEQ ID NO: 44; approximate values

| Molecule | increase in cocaine hydrolysis activity relative to butyrylcholinesterase |
| --- | --- |
| B1 | ten |
| B2 | sixteen |
| B3 | one-hundred |
| B4 | seven |
| B5 | ninety-seven |
| B6 | one-hundred |
| B7 | ninety-one |

same assay, conditions: compared to human butyrylcholinesterase SEQ ID NO: 44; approximate values; listed as SEQ ID NO: 8

| Molecule | increase in cocaine hydrolysis activity relative to butyrylcholinesterase |
| --- | --- |
| B4 | eight |

same assay, conditions: relative to wild-type = 1; catalytic efficiency (Vmax/Km), [3H]-cocaine microtiter assay

| Molecule | Relative Activity of butyrylcholinesterase variants (WT = 1) with enhanced cocaine hydrolase activity |
| --- | --- |
| B1 | 10 |
| B2 | 16 |
| B3 | 100 |
| B4 | 8 |
| B5 | 97 |
| B6 | 100 |
| B7 | 91 |
